Reference: US20240182556A1 (OPSIDIO, published 2024)

B1: 5H10 VK3/VH1 humanized antibody of Table 1 (antibody, V domains shown)
VH: QVQLVQSGAELKKPGSSVKISCKSSGYAFSSYWMNWVKQRPGQGLEWIGQIYPGDGDTHYNGKFKGKATLTADKSTSTAYMELSSLTSEDSAVYFCSSSNWVGSYWGQGTLVTVSS
VL: DVVMTQSPLSLPVTLGQPASISCKSSQSLLESDGKTYLNWLQQRPGQSPRRLIYLVSRLDSGVPDRFSGSGSGTDFTLKISRVEAEDVGVYYCWQGTHLPQTFGGGTKVEIK
B2: B124P mutant expressed as full length IgG4 antibody (antibody, V domains shown)
VH: QVQLVQSGAELKKPGSSVKISCKSSGYAFSSNWMNWVKQRPGQGLEWIGQIYPEDGDTHYNDKFKGKATLTADKSTSTAYMELSSLTSEDSAVYFCSSSNWVGSYWGQGTLVTVSS
VL: DVVMTQSPLSLPVTLGQPASISCKSSQSLLEQDGNTYLNWLQQRPGQSPRRLIYLVDRLDSGVPDRFSGSGSGTDFTLKISRVEAEDVGVYYCWQGTDLPQTFGGGTKVEIK
notes: Full length IgG4
B3: B104P mutant expressed as full length IgG4 antibody (antibody, V domains shown)
VH: QVQLVQSGAELKKPGSSVKISCKSSGYAFSSQWMNWVKQRPGQGLEWIGQIYPDDGDTHYNDKFKGKATLTADKSTSTAYMELSSLTSEDSAVYFCSSSNWVGSYWGQGTLVTVSS
VL: DVVMTQSPLSLPVTLGQPASISCKSSQSLLEADGNTYLNWLQQRPGQSPRRLIYLVDRLDSGVPDRFSGSGSGTDFTLKISRVEAEDVGVYYCWQGTDLPQTFGGGTKVEIK
notes: Full length IgG4
B4: A104P mutant expressed as full length IgG4 antibody (antibody, V domains shown)
VH: QVQLVQSGAELKKPGSSVKISCKSSGYAFSSQWMNWVKQRPGQGLEWIGQIYPEDGDTHYNGKFKGKATLTADKSTSTAYMELSSLTSEDSAVYFCSSSNWVGSYWGQGTLVTVSS
VL: DVVMTQSPLSLPVTLGQPASISCKSSQSLLEEDGNTYLNWLQQRPGQSPRRLIYLVDRLDSGVPDRFSGSGSGTDFTLKISRVEAEDVGVYYCWQGTDLPQTFGGGTKVEIK
notes: Full length IgG4
B5: F54P mutant expressed as full length IgG4 antibody (antibody, V domains shown)
VH: QVQLVQSGAELKKPGSSVKISCKSSGYAFSSQWMNWVKQRPGQGLEWIGQIYPEDGDTHMNGKFKTKATLTADKSTSTAYMELSSLTSEDSAVYFCSSSNWVGSYWGQGTLVTVSS
VL: DVVMTQSPLSLPVTLGQPASISCKSSQSLLEEDGNTYLNWLQQRPGQSPRRLIYLVDRLDSGVPDRFSGSGSGTDFTLKISRVEAEDVGVYYCWQGTDLPQTFGGGTKVEIK
notes: Full length IgG4
B6: D14P mutant expressed as full length IgG4 antibody (antibody, V domains shown)
VH: QVQLVQSGAELKKPGSSVKISCKSSGYAFSSQWMNWVKQRPGQGLEWIGQIYPGDDDTHYNDKFKGKATLTADKSTSTAYMELSSLTSEDSAVYFCSSSNWVGSYWGQGTLVTVSS
VL: DVVMTQSPLSLPVTLGQPASISCKSSQSLLESDGNTYLNWLQQRPGQSPRRLIYLVDRLDLGVPDRFSGSGSGTDFTLKISRVEAEDVGVYYCWQGTDLPQTFGGGTKVEIK
notes: Full length IgG4
B7: A64P mutant expressed as full length IgG4 antibody (antibody, V domains shown)
VH: QVQLVQSGAELKKPGSSVKISCKSSGYAFSSNWMNWVKQRPGQGLEWIGQIYPEDGDTHYNGKFKGKATLTADKSTSTAYMELSSLTSEDSAVYFCSSSNWVGSYWGQGTLVTVSS
VL: DVVMTQSPLSLPVTLGQPASISCKSSQSLLEEDGNTYLNWLQQRPGQSPRRLIYLVNRLDDGVPDRFSGSGSGTDFTLKISRVEAEDVGVYYCWQGTDLPQTFGGGTKVEIK
notes: Full length IgG4
B8: D44P mutant expressed as full length IgG4 antibody (antibody, V domains shown)
VH: QVQLVQSGAELKKPGSSVKISCKSSGYAFSSQWMNWVKQRPGQGLEWIGQIYPEDGDIHYNGKFKGKATLTADKSTSTAYMELSSLTSEDSAVYFCSSSNWVGSYWGQGTLVTVSS
VL: DVVMTQSPLSLPVTLGQPASISCKSSQSLLEEDGNTYLNWLQQRPGQSPRRLIYLVDRLDSGVPDRFSGSGSGTDFTLKISRVEAEDVGVYYCWQGSHLPQTFGGGTKVEIK
notes: Full length IgG4
B9: A84P mutant expressed as full length IgG4 antibody (antibody, V domains shown)
VH: QVQLVQSGAELKKPGSSVKISCKSSGYAFSSQWMNWVKQRPGQGLEWIGQIYPEDGDTHMNGKFKGKATLTADKSTSTAYMELSSLTSEDSAVYFCSSSNWVGSYWGQGTLVTVSS
VL: DVVMTQSPLSLPVTLGQPASISCKSSQSLLEEDGNTYLNWLQQRPGQSPRRLIYLVDRLDIGVPDRFSGSGSGTDFTLKISRVEAEDVGVYYCWQGTDLPQTFGGGTKVEIK
notes: Full length IgG4
B10: B114P mutant expressed as full length IgG4 antibody (antibody, V domains shown)
VH: QVQLVQSGAELKKPGSSVKISCKSSGYAFSSQWMNWVKQRPGQGLEWIGQIYPEDGDTHMNGKFKGKATLTADKSTSTAYMELSSLTSEDSAVYFCSSSNWDGSYWGQGTLVTVSS
VL: DVVMTQSPLSLPVTLGQPASISCKSSQSLLEEDGNTYLNWLQQRPGQSPRRLIYLVDRLDSGVPDRFSGSGSGTDFTLKISRVEAEDVGVYYCWQGTDLPQTFGGGTKVEIK
notes: Full length IgG4

Assays:
[1] = molecular target: human SCF248 (stem cell factor 248 isoform) expressed on mouse SI/SI4 cells (human), P21583; assay: cell-based or functional assay
[2] = molecular target: T1, exon 6 peptide (ASSLRNDSSSSNRKAKNPPGDS), coated on ELISA plate (not fully specified); assay: direct ELISA on coated peptide, IgG4, read at 450 nm
T1 construct: No biotin is mentioned for the ELISA coat; also called a peptide of SCF248
T1 peptide: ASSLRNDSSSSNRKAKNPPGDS
Description: A direct enzyme-linked immunosorbent assay (ELISA) was performed to evaluate binding of the clones of Example 2 (referred to in all additional examples as “mutants”) to the Exon 6 peptide. The mutants were expressed as full length IgG4 antibodies.
The plate was incubated at 4° C. overnight. […] Both plates were washed with wash buffer twice. Then, the plates were blocked with blocking buffer for 1 hour at 37° C. The plates were then washed with wash buffer twice. […] The plate was covered and incubated for 1 hour at 37° C. The plates were then washed with wash buffer three times. The secondary antibody was added to the plates. The plates were covered and incubated for 1 hour at 37° C. The plates were then washed with wash buffer three times. 100 μL of detection substrate was added to each well of the plates. The plates were covered and incubated for 10-20 minutes at room temperature. Subsequently, 100 μL of stop solution was added to the plates. Each plate was read at an absorbance of 450 nm.
Reagents: Coating buffer contained 1.5M NaCl, 0.5M […], and 1.0N NaOH. Wash buffer contained 0.05% Tween-20 in PBS. Blocking buffer contained 2.0% normal goat serum in wash buffer. The dilution buffer was wash buffer and 2% FCS. The secondary antibody was a goat anti-human IgG HRP conjugate, purchased from Millipore (Catalogue Number: AP309P). The secondary antibody was diluted 1:1000. The detection substrate was prepared by dissolving 4 O-phenylenediamine dihydrochloride (OPD) tablets dissolved in 12 mL sterile distilled water. 5 μL of hydrogen peroxide (30% v/v) was added to the detection substrate immediately before adding substrate to the wells. The stop solution contained 0.5 M H₂SO₄.

human SCF248 (stem cell factor 248 isoform) expressed on mouse SI/SI4 cells (human), P21583, sequence (P21583 26-273): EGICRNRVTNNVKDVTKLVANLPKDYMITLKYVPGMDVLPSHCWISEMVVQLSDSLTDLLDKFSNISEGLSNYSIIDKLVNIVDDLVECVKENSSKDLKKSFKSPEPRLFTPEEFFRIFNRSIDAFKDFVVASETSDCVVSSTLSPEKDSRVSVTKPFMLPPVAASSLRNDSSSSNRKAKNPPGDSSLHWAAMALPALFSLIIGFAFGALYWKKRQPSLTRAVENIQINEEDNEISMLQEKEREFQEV

Binder | CCL2 Expression as Percentage of Positive Control [1] | TGFβ Expression as Percentage of Positive Control [1] | absorbance at 0.1 ng/mL antibody [2] | absorbance at 0.5 ng/mL antibody [2] | absorbance at 1 ng/mL antibody [2] | absorbance at 5 ng/mL antibody [2] | absorbance at 100 ng/mL antibody [2] | absorbance at 1000 ng/mL antibody [2]
B1 | 37% | 65.5% |  |  |  |  |  | 
B2 | 55.9% | 49.6% | 0.0985 absorbance | 0.183 absorbance | 0.629 absorbance | 1.32 absorbance | 2.4 absorbance | 2.76 absorbance
B3 | 31.7% | 43.9% | 0.0855 absorbance | 0.174 absorbance | 0.527 absorbance | 1.13 absorbance | 1.83 absorbance | 2.48 absorbance
B4 | 27.4% | 46.9% | 0.092 absorbance | 0.305 absorbance | 1.02 absorbance | 1.57 absorbance | 2.6 absorbance | 2.94 absorbance
B5 | 55.7% | 74.6% | 0.11 absorbance | 0.367 absorbance | 0.446 absorbance | 1.35 absorbance | 1.57 absorbance | 2.42 absorbance
B6 | 46.8% | 48.8% | 0.137 absorbance | 0.266 absorbance | 0.861 absorbance | 1.81 absorbance | 2.53 absorbance | 3.15 absorbance
B7 | 22.9% | 47.9% | 0.122 absorbance | 0.172 absorbance | 0.564 absorbance | 1.41 absorbance | 2.71 absorbance | 3.12 absorbance
B8 | 42.2% | 58.5% | 0.0895 absorbance | 0.207 absorbance | 0.744 absorbance | 1.98 absorbance | 2.16 absorbance | 2.9 absorbance
B9 | 35.6% | 65.8% | 0.131 absorbance | 0.193 absorbance | 0.56 absorbance | 1.48 absorbance | 2.67 absorbance | 3.14 absorbance
B10 | 59.1% | 59.5% | 0.098 absorbance | 0.127 absorbance | 0.446 absorbance | 1.11 absorbance | 2.43 absorbance | 2.81 absorbance
